Test in all cases: EC50 of free RNA motif oligo competing protein binding to immobilised probe
For series [1], the target named is PTBP3 (UniProt O95758). An outline of the steps:
(§1)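 Over three biological replicates and two independent experiments, proteins captured on NHS-Sepharose beads carrying 5′-amino-C6 RNA oligos were quantified by label-free LC-MS/MS and normalised to the control. Capture lasted 30 min at 4°C and followed a 1 h pre-incubation at 4°C of HEK293-FT lysate (2.5 mg protein/well) with the same oligos in free form (0 nM to 30 μM). EC50 was taken from a four-parameter log-logistic fit, and Kd was EC50 corrected by a protein-dependent depletion factor.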

Series [2] addresses TUBB2A (UniProt Q13885). A digest of the protocol: as §1
Series [3] concerns the target U2AF2 (UniProt P26368). A digest of the protocol: as §1
The target in series [4] is ICT1 (UniProt Q14197). An outline of the steps:
as §1

The target of series [5] is IGF2BP2 (UniProt Q9Y6M1). An outline of the steps:
as §1

The target in series [6] is HNRNPU (UniProt Q00839). An outline of the steps: as §1
The target of series [7] is MRPL11 (UniProt Q9Y3B7). A digest of the protocol: as §1
The target of series [8] is MRPL19 (UniProt P49406). An outline of the steps:
as §1

The target in series [9] is T1, MEX3D (UniProt Q86XN8).
T1 sequence: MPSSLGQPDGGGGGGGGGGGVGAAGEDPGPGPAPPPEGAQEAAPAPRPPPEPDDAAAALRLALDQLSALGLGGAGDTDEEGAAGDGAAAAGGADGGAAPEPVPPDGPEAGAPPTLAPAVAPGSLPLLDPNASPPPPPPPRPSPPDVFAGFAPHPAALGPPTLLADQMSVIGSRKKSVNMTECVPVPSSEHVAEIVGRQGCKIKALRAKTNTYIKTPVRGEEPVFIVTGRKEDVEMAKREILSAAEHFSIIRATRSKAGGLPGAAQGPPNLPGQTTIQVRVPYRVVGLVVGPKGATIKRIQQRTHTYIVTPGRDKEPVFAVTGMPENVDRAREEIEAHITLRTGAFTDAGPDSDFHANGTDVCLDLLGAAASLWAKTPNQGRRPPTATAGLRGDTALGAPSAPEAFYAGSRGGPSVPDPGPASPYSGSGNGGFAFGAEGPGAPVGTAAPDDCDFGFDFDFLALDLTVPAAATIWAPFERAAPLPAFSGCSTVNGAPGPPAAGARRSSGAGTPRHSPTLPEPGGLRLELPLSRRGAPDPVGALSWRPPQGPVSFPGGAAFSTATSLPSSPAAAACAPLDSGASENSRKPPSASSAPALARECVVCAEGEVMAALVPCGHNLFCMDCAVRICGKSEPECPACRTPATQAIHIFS
An outline of the steps: as §1

For series [10], the target named is T2, PRPF3 (UniProt O43395).
T2 sequence: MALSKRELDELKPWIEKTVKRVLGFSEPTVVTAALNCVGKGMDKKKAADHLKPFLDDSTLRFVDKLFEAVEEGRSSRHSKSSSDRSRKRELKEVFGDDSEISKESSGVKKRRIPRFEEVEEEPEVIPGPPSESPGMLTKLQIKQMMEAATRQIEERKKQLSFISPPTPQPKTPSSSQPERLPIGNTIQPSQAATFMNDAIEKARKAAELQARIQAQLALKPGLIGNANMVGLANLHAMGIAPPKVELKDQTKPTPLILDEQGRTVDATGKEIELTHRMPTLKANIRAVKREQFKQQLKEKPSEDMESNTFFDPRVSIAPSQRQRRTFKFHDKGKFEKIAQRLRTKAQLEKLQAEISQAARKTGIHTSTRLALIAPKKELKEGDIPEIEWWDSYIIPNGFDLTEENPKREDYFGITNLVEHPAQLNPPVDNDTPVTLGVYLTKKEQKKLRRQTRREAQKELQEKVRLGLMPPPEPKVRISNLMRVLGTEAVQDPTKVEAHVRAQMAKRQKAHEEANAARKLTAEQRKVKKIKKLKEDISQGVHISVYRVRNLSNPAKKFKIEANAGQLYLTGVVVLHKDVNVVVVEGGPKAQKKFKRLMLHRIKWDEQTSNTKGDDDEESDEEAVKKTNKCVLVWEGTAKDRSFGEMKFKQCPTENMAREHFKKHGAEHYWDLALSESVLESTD
An outline of the steps:
as §1

The target in series [11] is MRPS31 (UniProt Q92665). A digest of the protocol:
as §1

In series [12] the target is HNRNPA1 (UniProt P09651). An outline of the steps:
as §1

Series [13] has as its target T3, CWF19L1 (UniProt Q69YN2).
T3 sequence: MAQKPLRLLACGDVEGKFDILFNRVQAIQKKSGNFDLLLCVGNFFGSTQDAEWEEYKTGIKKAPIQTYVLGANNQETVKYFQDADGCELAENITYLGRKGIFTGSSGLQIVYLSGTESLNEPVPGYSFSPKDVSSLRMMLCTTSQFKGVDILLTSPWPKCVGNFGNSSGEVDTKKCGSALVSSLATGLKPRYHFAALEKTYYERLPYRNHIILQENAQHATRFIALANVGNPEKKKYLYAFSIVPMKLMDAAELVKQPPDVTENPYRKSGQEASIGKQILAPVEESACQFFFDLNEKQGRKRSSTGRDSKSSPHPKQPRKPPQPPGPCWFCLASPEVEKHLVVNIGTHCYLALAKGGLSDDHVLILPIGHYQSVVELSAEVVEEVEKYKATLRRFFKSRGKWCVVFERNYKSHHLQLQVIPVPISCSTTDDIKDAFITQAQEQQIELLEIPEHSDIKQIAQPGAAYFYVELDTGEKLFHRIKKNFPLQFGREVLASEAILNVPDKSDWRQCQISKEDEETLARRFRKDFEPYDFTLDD
An outline of the steps:
as §1

pEC50: −log10 of the molar value.

Experimental findings from the supplement of paper PMC6379048 are described below.

The term pEC50 denotes −log10 of the EC50, conventionally taken in molar units.

Sequence of TUBB2A (Q13885 whole entry): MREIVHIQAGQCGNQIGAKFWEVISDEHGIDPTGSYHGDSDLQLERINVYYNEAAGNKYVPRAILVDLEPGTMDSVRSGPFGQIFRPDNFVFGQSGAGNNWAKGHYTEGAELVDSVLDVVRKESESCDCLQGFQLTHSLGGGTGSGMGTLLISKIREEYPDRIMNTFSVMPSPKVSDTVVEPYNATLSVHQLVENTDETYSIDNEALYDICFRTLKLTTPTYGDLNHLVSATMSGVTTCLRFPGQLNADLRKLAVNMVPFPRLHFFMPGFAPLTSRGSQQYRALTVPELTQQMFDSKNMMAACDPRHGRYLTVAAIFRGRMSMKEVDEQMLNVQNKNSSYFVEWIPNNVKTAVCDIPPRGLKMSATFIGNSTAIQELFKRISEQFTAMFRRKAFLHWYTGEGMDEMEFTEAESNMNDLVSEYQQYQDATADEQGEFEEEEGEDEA
Sequence of IGF2BP2 (Q9Y6M1 whole entry): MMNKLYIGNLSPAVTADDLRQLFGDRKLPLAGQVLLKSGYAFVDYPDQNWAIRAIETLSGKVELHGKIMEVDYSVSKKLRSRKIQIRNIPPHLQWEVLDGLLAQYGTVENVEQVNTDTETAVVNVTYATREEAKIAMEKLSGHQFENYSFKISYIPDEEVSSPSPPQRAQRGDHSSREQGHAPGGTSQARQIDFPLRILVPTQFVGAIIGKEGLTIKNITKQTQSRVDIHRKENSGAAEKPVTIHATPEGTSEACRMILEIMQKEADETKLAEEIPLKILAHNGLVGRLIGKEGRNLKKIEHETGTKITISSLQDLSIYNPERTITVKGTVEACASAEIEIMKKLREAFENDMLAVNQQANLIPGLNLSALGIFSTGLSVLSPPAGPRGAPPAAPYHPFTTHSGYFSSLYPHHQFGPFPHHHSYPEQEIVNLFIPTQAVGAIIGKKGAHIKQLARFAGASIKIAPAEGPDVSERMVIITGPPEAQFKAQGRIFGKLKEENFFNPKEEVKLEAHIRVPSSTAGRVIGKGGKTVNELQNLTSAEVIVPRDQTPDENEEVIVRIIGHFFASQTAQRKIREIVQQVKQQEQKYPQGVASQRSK
Sequence of HNRNPA1 (P09651 whole entry): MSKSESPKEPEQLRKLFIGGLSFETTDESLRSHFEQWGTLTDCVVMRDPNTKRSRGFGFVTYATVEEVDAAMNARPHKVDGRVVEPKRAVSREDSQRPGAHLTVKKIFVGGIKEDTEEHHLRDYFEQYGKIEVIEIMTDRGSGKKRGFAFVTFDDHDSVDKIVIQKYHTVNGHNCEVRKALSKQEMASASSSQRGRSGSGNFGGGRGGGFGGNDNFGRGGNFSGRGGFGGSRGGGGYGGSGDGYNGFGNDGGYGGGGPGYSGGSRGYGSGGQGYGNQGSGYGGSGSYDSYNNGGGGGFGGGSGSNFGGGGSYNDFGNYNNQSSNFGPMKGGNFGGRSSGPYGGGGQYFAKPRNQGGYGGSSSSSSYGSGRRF
Sequence of HNRNPU (Q00839 whole entry): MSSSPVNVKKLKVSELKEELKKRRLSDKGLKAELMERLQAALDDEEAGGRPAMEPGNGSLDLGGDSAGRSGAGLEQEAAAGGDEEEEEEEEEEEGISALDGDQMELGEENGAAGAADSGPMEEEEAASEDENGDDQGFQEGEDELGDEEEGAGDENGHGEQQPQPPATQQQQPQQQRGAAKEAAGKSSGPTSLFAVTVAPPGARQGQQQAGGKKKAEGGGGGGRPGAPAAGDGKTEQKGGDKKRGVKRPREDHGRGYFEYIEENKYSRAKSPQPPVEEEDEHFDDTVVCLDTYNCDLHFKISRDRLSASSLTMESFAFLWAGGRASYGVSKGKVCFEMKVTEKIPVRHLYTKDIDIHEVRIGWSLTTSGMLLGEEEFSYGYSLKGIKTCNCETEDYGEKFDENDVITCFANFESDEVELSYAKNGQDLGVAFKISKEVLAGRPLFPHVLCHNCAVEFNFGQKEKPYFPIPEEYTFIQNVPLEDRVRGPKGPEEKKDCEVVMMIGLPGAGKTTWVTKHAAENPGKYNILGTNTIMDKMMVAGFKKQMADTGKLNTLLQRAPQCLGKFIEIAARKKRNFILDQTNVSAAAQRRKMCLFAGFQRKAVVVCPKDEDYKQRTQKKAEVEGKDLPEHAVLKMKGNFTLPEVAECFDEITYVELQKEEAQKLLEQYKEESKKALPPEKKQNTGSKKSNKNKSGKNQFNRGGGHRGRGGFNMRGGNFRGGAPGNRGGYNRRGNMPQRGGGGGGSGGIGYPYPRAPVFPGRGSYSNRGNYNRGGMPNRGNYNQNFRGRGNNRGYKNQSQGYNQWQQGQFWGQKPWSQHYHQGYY
Sequence of PTBP3 (O95758 whole entry): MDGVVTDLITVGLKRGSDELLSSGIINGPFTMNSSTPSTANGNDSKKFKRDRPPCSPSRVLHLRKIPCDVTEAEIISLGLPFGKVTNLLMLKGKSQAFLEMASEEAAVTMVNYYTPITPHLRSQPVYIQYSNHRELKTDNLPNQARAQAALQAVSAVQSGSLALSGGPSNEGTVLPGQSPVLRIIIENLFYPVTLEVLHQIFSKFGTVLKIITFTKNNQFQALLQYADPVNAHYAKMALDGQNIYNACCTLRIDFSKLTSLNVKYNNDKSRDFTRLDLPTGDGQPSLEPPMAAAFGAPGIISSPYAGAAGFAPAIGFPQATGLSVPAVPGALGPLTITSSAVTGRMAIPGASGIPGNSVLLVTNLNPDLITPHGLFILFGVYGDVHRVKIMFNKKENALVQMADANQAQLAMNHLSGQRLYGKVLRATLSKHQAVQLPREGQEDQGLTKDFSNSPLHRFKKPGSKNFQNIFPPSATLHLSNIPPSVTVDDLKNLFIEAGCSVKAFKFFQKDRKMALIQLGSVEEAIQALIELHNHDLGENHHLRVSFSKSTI
Sequence of U2AF2 (P26368 whole entry): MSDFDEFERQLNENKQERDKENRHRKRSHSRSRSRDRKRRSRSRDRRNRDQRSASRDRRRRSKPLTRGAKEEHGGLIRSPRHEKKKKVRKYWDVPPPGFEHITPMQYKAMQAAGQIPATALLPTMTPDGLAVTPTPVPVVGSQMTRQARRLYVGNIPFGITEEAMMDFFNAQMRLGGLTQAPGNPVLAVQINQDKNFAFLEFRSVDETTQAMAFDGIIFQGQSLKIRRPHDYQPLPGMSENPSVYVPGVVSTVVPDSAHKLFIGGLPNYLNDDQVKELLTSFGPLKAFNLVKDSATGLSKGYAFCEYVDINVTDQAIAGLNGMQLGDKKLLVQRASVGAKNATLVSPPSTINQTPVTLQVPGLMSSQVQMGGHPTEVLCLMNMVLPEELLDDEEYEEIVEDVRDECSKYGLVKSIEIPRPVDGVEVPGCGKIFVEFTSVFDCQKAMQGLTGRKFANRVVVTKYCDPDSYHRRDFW

Regarding AAUAAA, the values for the pEC50 in series [1], in series [2] and in series [3] were 5.16, 5.96 and 5.99, respectively.

With CUGUCCU, the pEC50 was 6.90 in [4]; 5.53 in series [5]; 6.42 in series [6]; 6.93 in [7]; 6.87 in [8].

With UAUUUAU, the negative logarithm of the EC50 (pEC50) is 6.15 in [9]; 5.15 in [10]; 7.03 in series [11]; 5.53 in series [12]; 5.50 in series [13].
